In IntAct's records for PubMed 17498700:

B1: Type-1 angiotensin II receptor (Homo sapiens), P30556 (parent)
chain: MILNSSTEDGIKRIQDDCPKAGRHNYIFVMIPTLYSIIFVVGIFGNSLVVIVIYFYMKLKTVASVFLLNLALADLCFLLTLPLWAVYTAMEYRWPFGNYLCKIASASVSFNLYASVFLLTCLSIDRYLAIVHPMKSRLRRTMLVAKVTCIIIWLLAGLASLPAIIHRNVFFIENTNITVCAFHYESQNSTLPIGLGLTKNILGFLFPFLIILTSYTLIWKALKKAYEIQKNKPRNDDIFKIIMAIVLFFFFSWIPHQIFTFLDVLIQLGIIRDCRIADIVDTAMPITICIAYFNNCLNPLFYGFLGKKFKRYFLQLLKYIPPKAKSHSNLSTKMSTLSYRPSDNVSSSTKKPAPCFEVE

Variants of: B1
Conditions: with arrb1_human ARRB1, P49407
arrb1_human ARRB1, P49407, sequence (P49407 whole entry): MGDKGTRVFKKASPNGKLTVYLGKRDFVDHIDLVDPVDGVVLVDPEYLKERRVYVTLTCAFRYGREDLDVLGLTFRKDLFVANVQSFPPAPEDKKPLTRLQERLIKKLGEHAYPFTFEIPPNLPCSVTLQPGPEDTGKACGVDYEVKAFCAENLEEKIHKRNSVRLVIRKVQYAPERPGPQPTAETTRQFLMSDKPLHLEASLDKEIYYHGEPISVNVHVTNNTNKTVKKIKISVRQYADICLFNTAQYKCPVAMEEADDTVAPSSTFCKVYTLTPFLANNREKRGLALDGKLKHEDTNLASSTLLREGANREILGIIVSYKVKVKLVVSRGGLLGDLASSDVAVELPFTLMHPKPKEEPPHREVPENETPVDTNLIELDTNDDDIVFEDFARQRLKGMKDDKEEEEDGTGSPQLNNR

effect of a mutation on the interaction	Variant
decreasing interaction	MILNSSTEDGIKRIQDDCPKAGRHNYIFVMIPTLYSIIFVVGIFGNSLVVIVIYFYMKLKTVASVFLLNLALADLCFLLTLPLWAVYTAMEYRWPFGNYLCKIASASVSFGLYASVFLLTCLSIDRYLAIVHPMKSRLRRTMLVAKVTCIIIWLLAGLASLPAIIHRNVFFIENTNITVCAFHYESQNSTLPIGLGLTKNILGFLFPFLIILTSYTLIWKALKKAYEIQKNKPRNDDIFKIIMAIVLFFFFSWIPHQIFTFLDVLIQLGIIRDCRIADIVDTAMPITICIAYFNNCLNPLFYGFLGKKFKRYFLQLLKYIPPKAKSHSNLSTKMSTLSYRPSDNVSSSTKKPAPCFEVE [N111G]

Variants of: B1
Conditions: with gnaq_human GNAQ

effect of a mutation on the interaction	Variant
increasing interaction	MILNSSTEDGIKRIQDDCPKAGRHNYIFVMIPTLYSIIFVVGIFGNSLVVIVIYFYMKLKTVASVFLLNLALADLCFLLTLPLWAVYTAMEYRWPFGNYLCKIASASVSFGLYASVFLLTCLSIDRYLAIVHPMKSRLRRTMLVAKVTCIIIWLLAGLASLPAIIHRNVFFIENTNITVCAFHYESQNSTLPIGLGLTKNILGFLFPFLIILTSYTLIWKALKKAYEIQKNKPRNDDIFKIIMAIVLFFFFSWIPHQIFTFLDVLIQLGIIRDCRIADIVDTAMPITICIAYFNNCLNPLFYGFLGKKFKRYFLQLLKYIPPKAKSHSNLSTKMSTLSYRPSDNVSSSTKKPAPCFEVE [N111G]
